In article PMC4004102:

Biological target: AgrC-I (wild type) dimer embedded in nanodiscs (Staphylococcus aureus)
Assay: fluorescence polarisation

Substance: AIP-I (native autoinducing peptide of agr group 1)
- Kd: 63 nM

Substance: AIP-II (native autoinducing peptide of agr group 2)
- Kd: 160 nM
